The results in this text go back to paper PMC5708649, “A novel Porphyromonas gingivalis enzyme: An atypical dipeptidyl peptidase III with an ARM repeat domain” (PLoS ONE, 2017).

The test system of data set [1] is E. coli BK2118 (tag, alkA). In words: MMS complementation assay. Type of data set: cell-based, Escherichia coli. The conditions noted are these: pUC18 constructs, 1 mM to 5 mM MMS plates, 2 days, 37°C.
Data set [2] in a line: Thermal denaturation by circular dichroism. Type of data set: physicochemical. The conditions noted are these: thermal denaturation curves, CD. On the procedure:
Secondary structure and temperature stability of recombinant proteins were determined by recording circular dichroism spectra (CD) on a Jasco J-815 spectropolarimetar (JASCO, Easton, MD, USA) with automatic temperature control according to Jajčanin-Jozić et al.. Analysis of protein secondary structure from CD spectra was performed by using the CDSSTR program at the DICHROWEB site (http://public-1.cryst.bbk.ac.uk/cdweb/html). Protein concentrations were determined by the Bradford method.
For orientation: Circular dichroism is the unequal absorption of left and right circularly polarised light.

B1: PgDPP III: full-length dipeptidyl peptidase III from P. gingivalis W83 (PG_0317), 886 aa (protein)
chain: MTKETTQHRSGERIARFADIEVLSYRADLFGTLTPKQRMLCYHLSEAALRGRDITTIQNCRYNLWVRSLMERIYTHLSKSERTDDFALLEEYLFCIWFANGIHHHYSGAKFIARFSPGFLRAALREAGVELEPEEQVLLERVLYDTDFLPKQTEQSGEEDIIKASSVNFYAPGITRAEAESHYKNLIEALPENEKSCPPSFGLNTRLIRSTSGELKDEVCCIDGLYGPAIEAVVASLEAAIPYTENEEQAACIRLLCDYYRTGDIRLYDRFCIRWVENNRTRIDFINGFTEVYADPIGIHGSWEGLVHMQDEEAGRRTRIISEHAGWFEAHSPIDARFRKKNPHGISATVVNVLTIAGDSYPATPIGINLPNADWIRAEHGSKSVTIDNITDAYNHAARGTGLYEEFIPDEEVRRHVELHADLTDSLHTDLHECLGHGSGQLLPGVPGDALGEHASTLEETRADLFALYFLADPKMIELGLLTDPDAYKANYYKYMLNGLMTQLVRIKRGEEIEEAHMRNRALIARYVLEHAERPGAMSLVCEEGKTALVIKDYEAVRAIIAGLLTEVQRIKSEGDYTAGKALVERYAVHVDPLLHEEVLTRYAKLDIAPYKGFVNPRLRPVYNSEGRLTDATIEYTEGYAEQMLRYSAEYSFLPTDSPLLQEARRLRSHLRRAMDGVLSASMREKGLHYGINFGVTREHLLRLARTADASAPLADYLWRRDVRETKILATMIFPAEELTHEQATRLLREADNVELREQLTANLLERMPEAIRSIGRWIESKETTPDMMTGVLTLAARLFTRGIFPEDVPAEKLLTLAILHLSDEEQKAELRRASALLLKRYGRGSAERTKKVLCLLPESSQDTAPVLYELCEDIRFELDFYPKDE
modifications: left off: His tag, C-terminal, state not stated
The term Tm denotes the temperature at the midpoint of the melting transition. For the molecule B1, the results for the “rescue of alkylation-sensitive phenotype / alkylation repair function (in words)” value in data set [1] and in data set [1] (listed as full length PgDPP III) were “absence of any alkylation repair function” and “does not possess alkylation repair function”, respectively. Moreover, in data set [2], the Tm came out at 50 °C.
